Experimental findings from article PMC6099927, “Aptamer Display on Diverse DNA Polyhedron Supports” are described below.

Data set [1] deals with T1, Plasmodium falciparum lactate dehydrogenase (PfLDH) (Plasmodium falciparum, UniProt Q27743 1-316). The data set can be described thus: APTEC plate capture assay; higher signal than aptamer alone; 2x PBS binding buffer (recombinant PfLDH), 1 h, streptavidin plate coated with DNA, PBST (0.1% Tween-20) washes, absorbance 570 nm; blood: 1:1 with PBS 0.5% Triton X-100; pH and temperature not stated. Particulars: protein: recombinant, tags: His (HisTrap purified), chain copies: 4.
T1 sequence (Q27743 whole entry): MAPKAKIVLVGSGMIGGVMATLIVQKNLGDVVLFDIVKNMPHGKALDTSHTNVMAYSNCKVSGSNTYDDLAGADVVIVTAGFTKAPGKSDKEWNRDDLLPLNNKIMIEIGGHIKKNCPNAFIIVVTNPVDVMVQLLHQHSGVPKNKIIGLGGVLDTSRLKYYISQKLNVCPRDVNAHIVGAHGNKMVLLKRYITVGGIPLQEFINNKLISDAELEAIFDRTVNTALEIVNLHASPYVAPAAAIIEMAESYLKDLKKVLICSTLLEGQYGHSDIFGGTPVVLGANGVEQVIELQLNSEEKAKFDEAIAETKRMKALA

For data set [2], the target named is T1, Plasmodium falciparum lactate …. The data set can be described thus: APTEC plate capture assay; 2x PBS binding buffer (recombinant PfLDH), 1 h, streptavidin plate coated with DNA, PBST (0.1% Tween-20) washes, absorbance 570 nm; blood: 1:1 with PBS 0.5% Triton X-100; pH and temperature not stated. Particulars: protein: recombinant, tags: His (HisTrap purified), chain copies: 4.

The target is the same in data set [3]. In words: APTEC plate capture assay (enzyme activity of captured PfLDH), logistic fit; 2x PBS binding buffer (recombinant PfLDH), 1 h, streptavidin plate coated with DNA, PBST (0.1% Tween-20) washes, absorbance 570 nm; blood: 1:1 with PBS 0.5% Triton X-100; pH and temperature not stated. The conditions noted are these: protein: recombinant; tags: His (HisTrap purified); chain copies: 4; label: 5' biotin; single strand.

For orientation: Kd means the concentration at which binding is half-saturated.

B1: aptamer with double-stranded spacer (C2a/C2b) (mixed)
DNA 1: CTGGGCGGTAGAACCATAGTGACCCAGCCGTCTACTTTGGGGCCGGGCGCGCCCCGGTT
DNA 2: TTCCGGGGCGCGCCCGGCCCCA
On to B1, for which the binding result in data set [1] (label: 3' biotin on C2a, 20 bp spacer duplex, 5' aptamer overhang) is “binds”.

B2: aptamer with single-stranded spacer (C2a) (structured_DNA)
DNA: CTGGGCGGTAGAACCATAGTGACCCAGCCGTCTACTTTGGGGCCGGGCGCGCCCCGGTT
Regarding B2, in data set [1] (label: 3' biotin, single strand), the binding result was “binds”.

B3: aptamer pentagon-based pyramid (mixed)
DNA 1: TTCGGCCGATCTGGCATAGGCTTCCCCAACGTTATCTCGCGTGGCGTACGG
DNA 2: TTGATCGGCCGTTCCGCGCGTCCTGCCCTAGACGCCCCTGGGCCC
DNA 3: TTGCCTATGCCTGGGCCCAGGGGCGTCTTGGAGTCAACAGGTCGG
DNA 4: TTCGTTGGGGATCCGACCTGTTGACTCCTCCCGTCGACCAAAGAT
DNA 5: TTCGCGAGATATATCTTTGGTCGACGGGTCTCAGCCCTGACCCCA
DNA 6: CTGGGCGGTAGAACCATAGTGACCCAGCCGTCTACTTGGGCAGGACGCGCGGATCCGTACGCCTTGGGGTCAGGGCTGAG
Regarding B3, the dissociation constant (Kd) in data set [2] (label: 5' biotin on P2a-P2e, pentagon-based pyramid of 6 strands) turned out to be 14.8 ± 0.8 nM.

B4: PfLDH aptamer alone (Apt) (structured_DNA)
DNA: CTGGGCGGTAGAACCATAGTGACCCAGCCGTCTAC
For the molecule B4, in data set [3], the Kd was found to be 12.7 ± 0.71 nM.

B5: aptamer square-based pyramid (mixed)
DNA 1: TTATGTAACCGTGTCACTCCAGGTGTACTTCCTAAAATCGCGCGACCAG
DNA 2: TTCACGGTTACATTCTGTGTTGGCACGGCGTCGTCCGGGTGGCGGTT
DNA 3: TTCACCTGGAGTGTAACCGCCACCCGGACGTCGTTCGTCAAATAGTG
DNA 4: TTTTTTAGGAAGTTCACTATTTGACGAACGTGCTATGCCGCGCGCCT
DNA 5: CTGGGCGGTAGAACCATAGTGACCCAGCCGTCTACTTCGCCGTGCCAACACAGTCTGGTCGCGCGTAGGCGCGCGGCATAGC
As for B5, in data set [2] (label: 5' biotin on P1a-P1d, square-based pyramid of 5 strands), the dissociation constant (Kd) stood at 5.99 ± 0.64 nM.

B6: aptamer-tetrahedron 1 (mixed)
DNA 1: TTTTGCGGCTGGAGCCATGTCATCAGGGGCACGTCTCTAGGACGCGGCCGGGTCT
DNA 2: TTCATGGCTCCAGCCGCAATGACGGGACCGTGTGCCTGAGC
DNA 3: TTGAGACGTGCCCCTGATGTGCTCAGGCACTGCAGGGCAAA
DNA 4: CTGGGCGGTAGAACCATAGTGACCCAGCCGTCTACTTCGGTCCCGTCTAGACCCGGCCGCGTCCTTTTTGCCCTGC
Consider B6, for which, in data set [2] (label: 5' biotin on Ta, T1b, T1c, tetrahedron of 4 strands, height 2.65 nm), the Kd was 1.22 ± 0.13 nM.

B7: aptamer-tetrahedron 3 (mixed)
DNA 1: TTTTGCGGCTGGAGCCATGTCATCAGGGGCACGTCTCTAGGACGCGGCCGGGTCT
DNA 2: TTCATGGCTCCAGCCGCAATTGATCATTGAGTGTCGGTGGCGATGTCTCCCCGATAAAGCGTATGTTATAAGTCT
DNA 3: TTGAGACGTGCCCCTGATGTAGACTTATAACATACGCTTTATCGGGGTCCGGAGCCATCACACCTGGATCAGGAC
DNA 4: CTGGGCGGTAGAACCATAGTGACCCAGCCGTCTACTTGACATCGCCACCGACACTCAATGATCATAGACCCGGCCGCGTCCTTGTCCTGATCCAGGTGTGATGGCTCCGG
B7: the Kd in data set [2] (label: 5' biotin on Ta, T3b, T3c, tetrahedron of 4 strands, height 10.55 nm) was 1.61 ± 0.1 nM.

B8: aptamer-tetrahedron 2 (mixed)
DNA 1: TTTTGCGGCTGGAGCCATGTCATCAGGGGCACGTCTCTAGGACGCGGCCGGGTCT
DNA 2: TTCATGGCTCCAGCCGCAATTATCTAGCGATCTCACCTCGTCAAGGGTAAGCCCG
DNA 3: TTGAGACGTGCCCCTGATGTCGGGCTTACCCTTGACGTGTGGTAATTGTTGTGTA
DNA 4: CTGGGCGGTAGAACCATAGTGACCCAGCCGTCTACTTGGTGAGATCGCTAGATATAGACCCGGCCGCGTCCTTTACACAACAATTACCAC
For B8, the Kd in data set [2] (label: 5' biotin on Ta, T2b, T2c, tetrahedron of 4 strands, height 6.72 nm) stood at 2.09 ± 0.15 nM.
